Source: paper PMC3713453 (Science signaling, 2013)

How the values were obtained:
Experiment in all cases: ITC
Gal8_(C-CRD) V244A = Gal8_(C-CRD) V244A (human, UniProt O00214-2 228-359, V244A)
Gal8_(C-CRD) K246A = Gal8_(C-CRD) K246A (human, UniProt O00214-2 228-359, K246A)
Gal8_(C-CRD) H328A = Gal8_(C-CRD) H328A (human, UniProt O00214-2 228-359, H328A)
Gal8_(C-CRD) I312L = Gal8_(C-CRD) I312L (human, UniProt O00214-2 228-359, I312L)
Gal8_(C-CRD) I312V = Gal8_(C-CRD) I312V (human, UniProt O00214-2 228-359, I312V)
Sequence of Gal8_(C-CRD) I312V (O00214 186-317 I270V): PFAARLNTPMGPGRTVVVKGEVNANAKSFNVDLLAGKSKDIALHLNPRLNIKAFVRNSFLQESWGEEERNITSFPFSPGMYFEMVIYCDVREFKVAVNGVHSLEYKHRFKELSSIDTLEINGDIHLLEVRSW

Sequence of Gal8_(C-CRD) K246A (O00214 186-317 K204A): as the sequence (O00214 186-317 I270V) above, with K19A, V85I counted along it
Sequence of Gal8_(C-CRD) I312L (O00214 186-317 I270L): as the sequence (O00214 186-317 I270V) above, with V85L counted along it
Sequence of Gal8_(C-CRD) H328A (O00214 186-317 H286A): as the sequence (O00214 186-317 I270V) above, with V85I, H101A counted along it
Sequence of Gal8_(C-CRD) V244A (O00214 186-317 V202A): as the sequence (O00214 186-317 I270V) above, with V17A, V85I counted along it

Binder: ARQNPGLAYGNPYS [NDP52_(368-381) peptide]
- binding result (Gal8_(C-CRD) V244A): binds
- binding result (Gal8_(C-CRD) K246A): binds
- fold reduction of affinity against wild-type Gal8_(C-CRD) (Gal8_(C-CRD) H328A): 8 fold
- binding result (Gal8_(C-CRD) I312L): binds
- binding result (Gal8_(C-CRD) I312V): binds
